B1: A4-C4 (bispecific antibody)
chain: VQLQESGGGLVQAGGSLRLSCAASGSRFSINTMGWYRQAPGKQREFVATVTRGGNTNYAESVKGRFTISRDNAKNTVYLQMNSLRPEDTAVYYCHVDEVRDSSWTTSNIWGQGTQVTVSSGGGGSGGGGSGGGGSVQLQESGGGLVQAGGSLRLSCAASGSRFSINTMGWYRQAPGKQREFVATVTRGGNTNYAESVKGRFTISRDNAKNTVYLQMNSLRPEDTAVYYCHVDEVRDSSWTTSNIWGQGTQVTVSSGGGGSGGGGSGGGGSVQLQESGGGLVQPGGSLRLSCAASGSNFRINTMGWYRQAPGKQRELVATVTRGGSTNYADSVKGRFTISRDNPKDTVYLQMNSLRPEDTAVYYCHVDEVRESSWTTSNLWGQGTQVTVSS
B2: A4-C7 (bispecific antibody)
chain: VQLQESGGGLVQPGGSLRLSCAASGSNFSINTMGWYRQAPGKQRELVATVTRGGDTNYADSVKGRFTISRDNAKNTVYLQMNSLRPEDTAVYYCHVDEIRESSWTTSNLWGQGTQVTVSSGGGGSGGGGSGGGGSVQLQESGGGLVQPGGSLRLSCAASGSNFRINTMGWYRQAPGKQRELVAPVTRGGSTNYADSVKGRFTISRDNAKNTVYLQMNSLRPEDTAVYYCHVDEVRESSWTTSNLWGQGTQVTVSSGGGGSGGGGSGGGGSVQLQESGGGLVQPGGSLRLSCAASGSSFTINTMGWYRQAPGKQRELVAAVTRGGSTNYAGSVKGRFTISRDNAKNTIYLQMNSLRPEDTAVYYCHVDEIRQSSWTTSNLWGQGTQVTVSS
B3: A4-C1 (VHH)
chain: VQLQESGGGLVQPGGSLRLSCAASGSGFSINTMGWYRQAPGKQRELVATVTRDGSTNYADFVKGRFTISRDNAKNTVYLQMNSLRPEDTAVYYCHLDEVRESSWTTSNLWGQGTQVTVSSGGGGSGGGGSGGGGSVQLQESGGGLVQPGGSLRLSCAASGSGFSINTMGWYRQAPGKQRELVATVTRDGSTNYADFVKGRFTISRDNAKNTVYLQMNSLRPEDTAVYYCHLDEVRESSWTTSNLWGQGTQVTVSSGGGGSGGGGSGGGGSVQLQESGGGLVQPGGSLRLSCAASGSGFSINTMGWYRQAPGKQRELVATVTRDGSTNYADFVKGRFTISRDNAKNTVYLQMNSLRPEDTAVYYCHLDEVRESSWTTSNLWGQGTQVTVSS
B4: A4-C3 (bispecific antibody)
chain: VQLQESGGGLVQPGGSLRLSCAASGSIFSINLMGWYRQAPGKQRELVATITRGGNTNYAGSVKGRFTISRDNAKNTVYLQMNSLRPEDTAVYYCHVDEVRQSSWTTSNLWGQGTQVTVSSGGGGSGGGGSGGGGSVQLQESGGGLVQPGGSLRLSCAASGSIFSINLMGWYRQAPGKQRELVATITRGGNTNYAGSVKGRFTISRDNAKNTVYLQMNSLRPEDTAVYYCHVDEVRQSSWTTSNLWGQGTQVTVSSGGGGSGGGGSGGGGSVQLQESGGGLVQPGGSLRLSCAASGSNFRINTMGWYRQAPGKQRELVATVTRGGSTNYADSVKGRFTISRDNPKDTVYLQMNSLRPEDTAVYYCHVDEVRESSWTTSNLWGQGTQVTVSS
B5: A4-B2 (bispecific antibody)
chain: VQLQESGGGLVQAGGSLRLSCAASGSRFSINTMGWYRQAPGKQREFVATVTRGGNTNYAESVKGRFTISRDNAKNTVYLQMNSLRPEDTAVYYCHVDEVRDSSWTTSNIWGQGTQVTVSSGGGGSGGGGSGGGGSVQLQESGGGLVQAGGSLRLSCAASGSTFSINTMGWYRQAPGKQRELVATITRGGNTNYADSVKGRFTISRDNAKNTVYLQMNSLRPEDTAVYYCHVDEVRQSSWTTSNLWGQGTQVTVSS
B6: A4-C5 (bispecific antibody)
chain: VQLQESGGGLVQPGGSLRLSCAASGSNFRINTMGWYRQAPGKQRELVATVTRGGSTNYADSVKGRFTISRDNPKNTVYLQMNSLRPEDTAVYYCHVDEVRESSWTTSNLWGQGTQVTVSSGGGGSGGGGSGGGGSVQLQESGGGLVQPGGSLRLSCAASGSNFSINTMGWYRQAPGKQRELVATVTRGGDTNYADSVKGRFTISRDNAKNTVYLQMNSLRPEDTAVYYCHVDEIRESSWTTSNLWGQGTQVTVSSGGGGSGGGGSGGGGSVQLQESGGGLVQPGGSLRLSCAASGSNFRINTMGWYRQAPGKQRELVATVTRGGSTNYADSVKGRFTISRDNPKNTVYLQMNSLRPEDTAVYYCHVDEVRESSWTTSNLWGQGTQVTVSS
B7: A4-C8 (bispecific antibody)
chain: B6 chain with T49P, P73A, R299S, T319A, V320L, P343A
B8: A4-C9 (bispecific antibody)
chain: B6 chain with R29S, S55D, P73A, V99I, T184A, V185L, D190S, I234V, T319P, P343A
B9: A4-C6 (bispecific antibody)
chain: B6 chain with T49P, P73A, T184A, V185L, D190S, I234V, R299S, S325D, P343A, V369I
B10: A4-B1 (VHH)
chain: VQLQESGGGLVQPGGSLRLSCAASGSIFSINLMGWYRQAPGKQRELVATITRGGNTNYAGSVKGRFTISRDNAKNTVYLQMNSLRPEDTAVYYCHVDEVRQSSWTTSNLWGQGTQVTVSSGGGGSGGGGSGGGGSVQLQESGGGLVQPGGSLRLSCAASGSIFSINLMGWYRQAPGKQRELVATITRGGNTNYAGSVKGRFTISRDNAKNTVYLQMNSLRPEDTAVYYCHVDEVRQSSWTTSNLWGQGTQVTVSS
B11: A4-C2 (VHH)
chain: VQLQESGGGLVQPGGSLRLSCAASGSAFSINTMGWYRQAPGKQRELVASVTPGGSTNYADSVKGRFTISRDNAKNTIYLQMNSLRPEDTAVYYCHLDEVRESSWTTSNLWGQGTQVTVSSGGGGSGGGGSGGGGSVQLQESGGGLVQPGGSLRLSCAASGSAFSINTMGWYRQAPGKQRELVASVTPGGSTNYADSVKGRFTISRDNAKNTIYLQMNSLRPEDTAVYYCHLDEVRESSWTTSNLWGQGTQVTVSSGGGGSGGGGSGGGGSVQLQESGGGLVQPGGSLRLSCAASGSAFSINTMGWYRQAPGKQRELVASVTPGGSTNYADSVKGRFTISRDNAKNTIYLQMNSLRPEDTAVYYCHLDEVRESSWTTSNLWGQGTQVTVSS

Where a chain is given by its changes, count along the chain named.

The target of one assay is AAV5 (adeno-associated virus serotype 5). The experiment in a line: SPR, AAV on CM5 chip. Background: Surface plasmon resonance follows binding to a sensor surface in real time, without labels.
For B1, the Kd – broadly, the equilibrium constant for the complex coming apart – turned out to be 6.72 nM; the dissociation rate constant (koff) (in general, a measure of how fast the partners let go of each other) was found to be 0.00121 s⁻¹; the kon (in general, a measure of how fast the partners come together) is 180000 M⁻¹ s⁻¹.

B2: the Kd was determined as 0.0732 nM, the koff amounted to 3.2e-05 s⁻¹ and the kon is 437000 M⁻¹ s⁻¹.

Molecule B3 yielded an equilibrium dissociation constant (Kd) of 13.2 nM, a koff of 0.00138 s⁻¹ and a kon of 104000 M⁻¹ s⁻¹.

On to B4, for which the dissociation constant (Kd) is 0.628 nM, the koff was 9e-05 s⁻¹ and the kon came to 143000 M⁻¹ s⁻¹.

B5 came in with a Kd of 7.38 nM, a koff of 0.00117 s⁻¹ and a kon of 159000 M⁻¹ s⁻¹.

Consider B6, for which the Kd turned out to be 7.86 nM, the koff was 0.0013 s⁻¹ and the kon turned out to be 165000 M⁻¹ s⁻¹.

With B7, the Kd was determined as 0.69 nM, the koff turned out to be 0.00013 s⁻¹ and the kon is 188000 M⁻¹ s⁻¹.

In turn, B8 displayed a Kd of 0.777 nM, a koff of 5e-05 s⁻¹ and a kon of 64300 M⁻¹ s⁻¹.

In turn, B9 had a Kd of 0.785 nM, a koff of 0.000139 s⁻¹ and a kon of 177000 M⁻¹ s⁻¹.

In the case of B10, the Kd amounted to 0.102 nM, the dissociation rate constant (koff) amounted to 1.23e-05 s⁻¹ and the kon is 121000 M⁻¹ s⁻¹.

As to B11, the equilibrium dissociation constant (Kd) amounted to 0.691 nM, the koff was found to be 0.000134 s⁻¹ and the kon amounted to 194000 M⁻¹ s⁻¹.

In another assay the target is AAV8 (adeno-associated virus serotype 8). Kind of assay: SPR, AAV on CM5 chip.
For the molecule B1, the Kd was determined as 2.36 nM, the koff amounted to 0.00025 s⁻¹ and the kon came to 106000 M⁻¹ s⁻¹.

B2: the Kd came to 3.7 nM, the koff is 0.00047 s⁻¹ and the kon was 127000 M⁻¹ s⁻¹.

The molecule B3 displayed an equilibrium dissociation constant (Kd) of 9.2 nM, a koff of 0.00164 s⁻¹ and an on-rate (kon) of 178000 M⁻¹ s⁻¹.

B4: the dissociation constant (Kd) was found to be 0.534 nM, the koff came to 4e-05 s⁻¹ and the kon came out at 74900 M⁻¹ s⁻¹.

For the molecule B5, the Kd stood at 1.02 nM, the koff is 0.00014 s⁻¹ and the kon turned out to be 138000 M⁻¹ s⁻¹.

Molecule B6 showed a Kd of 4.97 nM, a koff of 0.00091 s⁻¹ and a kon of 183000 M⁻¹ s⁻¹.

B7 came in with a Kd of 2.81 nM, a koff of 0.00037 s⁻¹ and a kon of 132000 M⁻¹ s⁻¹.

For B8, the Kd came out at 1.14 nM, the koff is 0.00013 s⁻¹ and the kon was determined as 114000 M⁻¹ s⁻¹.

B9 displayed a Kd of 2.67 nM, a koff of 0.00044 s⁻¹ and a kon of 165000 M⁻¹ s⁻¹.

Molecule B10 displayed a Kd of 1.63 nM, a koff of 0.000154 s⁻¹ and a kon of 94500 M⁻¹ s⁻¹.

Consider B11, for which the Kd is 0.359 nM, the koff is 5e-05 s⁻¹ and the kon came out at 139000 M⁻¹ s⁻¹.

In the next assay the target is AAV9 (adeno-associated virus serotype 9). Kind of assay: SPR, AAV on CM5 chip.
B1: the Kd was determined as 1.87 nM, the koff was determined as 0.00031 s⁻¹ and the association rate constant (kon) turned out to be 165000 M⁻¹ s⁻¹.

Turning to B2, the Kd was found to be 0.127 nM, the koff was 1.75e-05 s⁻¹ and the kon was 137000 M⁻¹ s⁻¹.

B3 returned a Kd of 1.03 nM, a koff of 1e-05 s⁻¹ and a kon of 9690 M⁻¹ s⁻¹.

The molecule B4 gave a Kd of 0.491 nM, a koff of 9e-05 s⁻¹ and an on-rate constant (kon) of 183000 M⁻¹ s⁻¹.

In turn, B5 returned a Kd of 8.35 nM, an off-rate (koff) of 0.0008 s⁻¹ and a kon of 95800 M⁻¹ s⁻¹.

B6 returned a Kd of 1.68 nM, a koff of 0.0002 s⁻¹ and a kon of 119000 M⁻¹ s⁻¹.

In turn, B7 displayed a Kd of 0.279 nM, a koff of 5e-05 s⁻¹ and a kon of 179000 M⁻¹ s⁻¹.

In the case of B8, the Kd turned out to be 0.669 nM, the koff is 0.00013 s⁻¹ and the kon was 194000 M⁻¹ s⁻¹.

Turning to B9, the equilibrium dissociation constant (Kd) turned out to be 0.55 nM, the koff was found to be 2.5e-05 s⁻¹ and the kon was 45400 M⁻¹ s⁻¹.

B10 showed a Kd of 0.715 nM, a koff of 0.00014 s⁻¹ and a kon of 196000 M⁻¹ s⁻¹.

As for B11, the Kd is 0.486 nM, the koff turned out to be 0.000125 s⁻¹ and the kon worked out at 257000 M⁻¹ s⁻¹.
